Data published in the supplement of paper PMC11246515.
± gives the standard deviation of the averaged measurements.

Assay: total protein half-life in vivo (active degradation + dilution); higher = more stable protein
[1] = E. coli NCM3722 delta-clpP delta-lon delta-hslV, growth: N-lim chemostat, doubling time 6 h
[2] = E. coli NCM3722 delta-hslV, growth: N-lim chemostat, doubling time 6 h
[3] = E. coli NCM3722 delta-lon, growth: N-lim chemostat, doubling time 6 h
[4] = E. coli NCM3722 delta-smpB, growth: N-lim chemostat, doubling time 6 h
[5] = wild type E. coli NCM3722, growth: C-lim chemostat, doubling time 6 h
[6] = wild type E. coli NCM3722, growth: N-lim chemostat, doubling time 6 h
[7] = wild type E. coli NCM3722, growth: N-lim chemostat, doubling time 12 h
[8] = wild type E. coli NCM3722, growth: P-lim chemostat, doubling time 6 h
[9] = wild type E. coli NCM3722, growth: P-lim chemostat, doubling time 12 h
[10] = wild type E. coli NCM3722, growth: C-lim chemostat, doubling time 12 h
[11] = E. coli NCM3722 delta-clpP, growth: N-lim chemostat, doubling time 6 h
[12] = wild type E. coli NCM3722, growth: C-lim chemostat, doubling time 3 h

Row | Sequence | total protein half-life in vivo [1] [h] | total protein half-life in vivo [2] [h] | total protein half-life in vivo [3] [h] | total protein half-life in vivo [4] [h] | total protein half-life in vivo [5] [h] | total protein half-life in vivo [6] [h] | total protein half-life in vivo [7] [h] | total protein half-life in vivo [8] [h] | total protein half-life in vivo [9] [h] | total protein half-life in vivo [10] [h] | total protein half-life in vivo [11] [h] | total protein half-life in vivo [12] [h]
1 | MIDYEVLRFIWWLLVGVLLIGFAVTDGFDMGVGMLTRFLGRNDTERRIMINSIAPHWDGNQVWLITAGGALFAAWPMVYAAAFSGFYVAMILVLASLFFRPVGFDYRSKIEETRWRNMWDWGIFIGSFVPPLVIGVAFGNLLQGVPFNVDEYLRLYYTGNFFQLLNPFGLLAGVVSVGMIITQGATYLQMRTVGELHLRTRATAQVAALVTLVCFALAGVWVMYGIDGYVVKSTMDHYAASNPLNKEVVREAGAWLVNFNNTPILWAIPALGVVLPLLTILTARMDKAAWAFVFSSLTLACIILTAGIAMFPFVMPSSTMMNASLTMWDATSSQLTLNVMTWVAVVLVPIILLYTAWCYWKMFGRITKEDIERNTHSLY [P0ABK2] | > 8 | 6.72 | 5.91 | 5.4 | 6.31 | 6.61 | 12.2 ± 1.9 | 6.45 ± 0.17 | 12.9 ± 0.13 | – | – | –
2 | MIDYKKNLLFILVFISGFILFTVYSYTAEKMIYNETCTANWVIFNDQGRANLTIDFMYNKKNKTGTVALSGTWQQGNRESKSIRRNIEYTWIENYDTAHLTSKKVNKFEIMDQVDDDRLAQLIPDFYVFPEKSVSYNILKQGKHAFILSIGNRAIMHCAR | – | – | – | – | – | – | – | – | – | > 16 | – | –
3 | MIEADRLISAGTTLPEDVADRAIRPKLLEEYVGQPQVRSQMEIFIKAAKLRGDALDHLLIFGPPGLGKTTLANIVANEMGVNLRTTSGPVLEKAGDLAAMLTNLEPHDVLFIDEIHRLSPVVEEVLYPAMEDYQLDIMIGEGPAARSIKIDLPPFTLIGATTRAGSLTSPLRDRFGIVQRLEFYQVPDLQYIVSRSARFMGLEMSDDGALEVARRARGTPRIANRLLRRVRDFAEVKHDGTISADIAAQALDMLNVDAEGFDYMDRKLLLAVIDKFFGGPVGLDNLAAAIGEERETIEDVLEPYLIQQGFLQRTPRGRMATTRAWNHFGITPPEMP [P0A812] | – | 1.8 ± 0.077 | 2.7 ± 0.38 | 1.63 ± 0.079 | 3.53 ± 0.55 | 2.08 ± 0.048 | 2.46 ± 0.039 | 3.14 ± 0.27 | 4.66 ± 0.42 | 5.83 ± 0.95 | 3.14 ± 0.2 | 2.35 ± 0.51
4 | MIEFKNVSKHFGPTQVLHNIDLNIAQGEVVVIIGPSGSGKSTLLRCINKLEEITSGDLIVDGLKVNDPKVDERLIRQEAGMVFQQFYLFPHLTALENVMFGPLRVRGANKEEAEKLARELLAKVGLAERAHHYPSELSGGQQQRVAIARALAVKPKMMLFDEPTSALDPELRHEVLKVMQDLAEEGMTMVIVTHEIGFAEKVASRLIFIDKGRIAEDGNPQVLIKNPPSQRLQEFLQHVS | 6.81 ± 0.9 | 5.292 ± 0.039 | 5.12 ± 0.18 | 5.72 ± 0.6 | 4.88 ± 1.6 | 6.79 | 11.5 ± 0.64 | 5.25 | 12.5 ± 0.99 | 11.9 ± 0.78 | 5.7293 ± 0.0055 | 2.93 ± 0.62
5 | MIEFSHVSKLFGAQKAVNDLNLNFQEGSFSVLIGTSGSGKSTTLKMINRLVEHDSGEIRFAGEEIRSLPVLELRRRMGYAIQSIGLFPHWSVAQNIATVPQLQKWSRARIDDRIDELMALLGLESNLRERYPHQLSGGQQQRVGVARALAADPQVLLMDEPFGALDPVTRGALQQEMTRIHRLLGRTIVLVTHDIDEALRLAEHLVLMDHGEVVQQGNPLTMLTRPANDFVRQFFGRSELGVRLLSLRSVADYVRREERADGEALAEEMTLRDALSLFVARGCEVLPVVNMQGQPCGTLHFQDLLVEA | 5.87 ± 0.78 | – | 4.82 | 4.51 ± 0.06 | 4.96 ± 0.22 | 5.05 ± 0.085 | 7.777 ± 0.046 | 4.85 ± 0.33 | 8.835 ± 0.04 | 8.02 ± 0.57 | 5.31 ± 0.036 | 2.77 ± 0.11
6 | MIEIESRELADIPVLHAYPVGQKDTPLPCVIFYHGFTSSSLVYSYFAVALAQAGLRVIMPDAPDHGSRFSGDAARRLNQFWQILLQSMQEFTTLRAAIAEENWLLDDRLAVGGASMGAMTALGITARHPTVRCTASMMGSGYFTSLARSLFPPLIPETAAQQNEFNNIVAPLAEWEATNHLEQLSDRPLLLWHGLDDDVVPADESLRLQQALSETGRDKLLTCSWQPGVRHRITPEALDAAVTFFRQHL | 4.25 ± 0.61 | 4.061 ± 0.029 | 4.32 ± 0.38 | 3.95 ± 0.12 | 5.72 ± 0.33 | 4.11 ± 0.3 | 6.87 ± 0.64 | 5.95 ± 0.17 | 12.2 ± 0.79 | 11 ± 0.45 | – | 3.24 ± 0.097
7 | MIEKIWSGESPLWRLLLPLSWLYGLVSGAIRLCYKLKLKRAWRAPVPVVVVGNLTAGGNGKTPVVVWLVEQLQQRGIRVGVVSRGYGGKAESYPLLLSADTTTAQAGDEPVLIYQRTDAPVAVSPVRSDAVKAILAQHPDVQIIVTDDGLQHYRLARDVEIVVIDGVRRFGNGWWLPAGPMRERAGRLKSVDAVIVNGGVPRSGEIPMHLLPGQAVNLRTGTRCDVAQLEHVVAMAGIGHPPRFFATLKMCGVQPEKCVPLADHQSLNHADVSALVSAGQTLVMTEKDAVKCRAFAEENWWYLPVDAQLSGDEPAKLLTQLTLLASGN | 6.05 ± 0.42 | 6.52 ± 1.2 | 6.39 ± 0.34 | 5.71 ± 0.64 | 7.25 ± 0.18 | 5.52 | – | – | 13.8 ± 2 | 8.44 | 6.49 | 3.11 ± 0.41
8 | MIENRPWLTIFSHTMLILGIAVILFPLYVAFVAATLDKQAVYAAPMTLIPGTHLLENIHNIWVNGVGTNSAPFWRMLLNSFVMAFSITLGKITVSMLSAFAIVWFRFPLRNLFFWMIFITLMLPVEVRIFPTVEVIANLQMLDSYAGLTLPLMASATATFLFRQFFMTLPDELVEAARIDGASPMRFFCDIVFPLSKTNLAALFVITFIYGWNQYLWPLLIITDVDLGTTVAGIKGMIATGEGTTEWNSVMVAMLLTLIPPVVIVLVMQRAFVRGLVDSEK | – | – | – | – | – | – | – | 6.34 | 12.6 ± 2.1 | 14.5 | – | –
9 | MIEQFFRPDSVEQALELKRRYQDEAVWFAGGSKLNATPTRTDKKIAISLQDLELDWVDWDNGALRIGAMSRLQPLRDARFIPAALREALGFVYSRHVRNQSTIGGEIAARQEESVLLPVLLALDAELVFGNGETLSIEDYLACPCDRLLTEIIIKDPYRTCATRKISRSQAGLTVVTAAVAMTDHDGMRIALDGVASKALRLHDVEKQNLEGNALEQAVANAIFPQEDLRGSVAYKRYITGVLVADLYADCQQAGEEAV | – | – | 0.974 | – | – | – | – | – | – | – | – | –
